Results on five molecules are retold here after paper PMC3507621, “Implication of the oligomeric state of the N-terminal PTX3 domain in cumulus matrix assembly” (Matrix Biology, 2011).

Numbering of substitutions follows the chain as printed. In names and notes the source's numbering stands. Several values for one entry are separate records, joined by “and”; a condition that tells them apart may be missing. Identical values can stand only once.

First the molecules themselves.
B1: wild type recombinant N-terminal region of PTX3 (N_PTX3) (domain or fragment, human)
chain: ENSDDYDLMYVNLDNEIDNGLHPTEDPTPCACGQEHSEWDKLFIMLENSQMRERMLLQATDDVLRGELQRLREELGRLAESLARPCAPGAPAEARLTSALDELLQATRDAGRRLARMEGAEAQRPEEAGRALAAVLEELRQTRADLHAVQGWATG
notes: Pentraxin 3 (PTX3), human, residues 18-170 of the PTX3 preprotein; two non-authentic amino acids (Thr-Gly) before the C-terminal His tag; Organised into tetramers by SEC and native gel; The 5' primer begins at the ATG of the preprotein, so the signal peptide was probably encoded and cut off on secretion (surmise); also called WT; source: HEK-293 F, stably transfected, purified from culture …
B2: N_PTX3C47S/C49S/C103S (domain or fragment, human)
chain: B1 chain with C30S, C32S, C86S
notes: Pentraxin 3 (PTX3), human, residues 18-170 of the PTX3 preprotein, with C47S, C49S and C103S; two non-authentic amino acids (Thr-Gly) before the C-terminal His tag; Composed entirely of non-covalent dimers; also called triple mutant; C47/C49/C103; source: HEK-293 F, stably transfected, purified from culture supernatant (HisTrap, desalting)
B3: N_PTX3C47S/C49S (domain or fragment, human)
chain: B1 chain with C30S, C32S
notes: Pentraxin 3 (PTX3), human, residues 18-170 of the PTX3 preprotein, with C47S and C49S; two non-authentic amino acids (Thr-Gly) before the C-terminal His tag; Mixture of tetramers and dimers, more dimers than tetramers; also called double mutant; C47/C49; source: HEK-293 F, stably transfected, purified from culture supernatant (HisTrap, desalting)
B4: N_PTX3C103S (domain or fragment, human)
chain: B1 chain with C86S
notes: Pentraxin 3 (PTX3), human, residues 18-170 of the PTX3 preprotein, with C103S; two non-authentic amino acids (Thr-Gly) before the C-terminal His tag; Mixture of tetramers and dimers, more tetramers than dimers; also called single mutant; source: HEK-293 F, stably transfected, purified from culture supernatant (HisTrap, desalting)
B5: mouse TSG-6 (tumor necrosis factor-induced protein 6) (natural protein, UniProt O08859 18-275, looked up)
chain: WGFKNGIFHNSIWLEQAAGVYHREARAGRYKLTYAEAKAVCEFEGGRLATYKQLEAARKIGFHVCAAGWMAKGRVGYPIVKPGPNCGFGKTGIIDYGIRLNRSERWDAYCYNPHAKECGGVFTDPKRIFKSPGFPNEYDDNQVCYWHIRLKYGQRIHLSFLDFDLEHDPGCLADYVEIYDSYDDVHGFVGRYCGDELPEDIISTGNVMTLKFLSDASVTAGGFQIKYVTVDPASKSSQAKNTSTTGNKKFLPGRFSHL
notes: TSG-6 (tumor necrosis factor-induced protein 6), mouse; source: bought: R&D

One series concerns the molecule itself. Briefly: SEC + native gel or EMSA; Superose 6 in 20 mM sodium phosphate, 150 mM NaCl, pH 7.4; native 4-20% polyacrylamide gel without SDS; oligomeric state of purified N_PTX3 proteins.
Settings: not given
As for B1, the “stoichiometry N” value is 4. In the case of B2, the “stoichiometry N” value was determined as 2. Same read-out and setting: for B3 the value was 4 and 2. On the same count and under the same terms, for B4 the value was 4 and 2.

The target of a further series is B5. Description: ELISA; N_PTX3 proteins coated on wells (10 μg/ml); IαI or TSG-6 added in PBS with Ca2+ and Mg2+, 0.05% Tween-20, 1% BSA, pH 7.4, 2 h at 37 °C; detected with polyclonal anti-IαI or anti-TSG-6. To be noted: both partners purified.
B1: the binding result is listed as “binds”. Same read-out and setting: the same measure for B2: “binds”. The same measure, in the same setting: for B3 the value was “binds”. Turning to B4, the binding result is “binds”.

Another series has as its target T1, biotinylated recombinant full length PTX3 (human, UniProt P26022 18-381, biotin).
T1 construct: Pentraxin 3 (PTX3), human recombinant wild type, full length; As a secreted protein it probably lacks the signal peptide (residues 1-17; surmise); also called bPTX3; biotinylated PTX3
Description: ELISA; competition: wells coated with 500 ng of IαI or TSG-6; 50 ng/well biotinylated PTX3 with or without unlabeled N_PTX3 or triple mutant, 1 h at 37 °C; HRP-streptavidin. The conditions noted are these: both partners purified.
Turning to B5, the binding result is listed as “binds”.
